Patent publication US11485776B2, “Antibodies against infectious diseases” (priority 2015, dated 2022)

System: binding of C. albicans cells to human oral keratinocyte OECM-1 cells
Assay: Adhesion assay of C. albicans to OECM-1 cells
Type: cell-based
Settings: 50 μg and 100 μg, vs PBS control
Procedure: C. albicans were mixed with 1×PBS, 50 ug or 100 ug CaS1 scFv at 37° C. for 1 hr and added into OECM-1 cells in culture wells as described in the text. After being washed, cells attached to C. albicans were detected by adding HRP-conjugated anti-C. albicans antibodies.
Cell adhesion assay was performed using human oral epidermal cells (OECM-1) (XXX). C. albicans (1×10^6 cfu) were pre-incubated with CaS1 scFv antibodies ([…]) at 37° C. for 1 hr. After incubation, the mixtures were two-fold diluted and added onto 10^4 OECM-1 cells cultured in 96-well plates. The plates were further incubated at 4° C. for 2 hrs. After being washed three times with 1×PBS, the plates were fixed with 10% formaldehyde. After being washed as above, the wells were blocked with skim milk for 1 hr. Thereafter, rabbit anti-C. albicans antibodies (1:3,000, Bethyl, USA) were added and incubated for another 1 hr, followed by adding the HRP-conjugated anti-rabbit antibodies (1:3,000, Bethyl, USA). Washings as above were always carried out between steps. TMB was used for color development, which was stopped with 1 N HCl. The intensity of the color was measured at 450 nm on an ELISA plate reader.
C. albicans cells (1×10^6) were treated with 50 μg and 100 μg of scFv CaS1, respectively, and the resulting mixtures were added to human oral keratinocyte OECM-1 cells to test the binding ability of C. albicans cells to OECM-1 cells.

B1: CaS1 scFv: anti-CaENO1 scFv monoclonal antibody from chicken phage library; light chain SEQ ID NO:11, heavy chain SEQ ID NO:12 (antibody, V domains shown)
VH: TVTLDESGGGLQTPRGALSLVCKASGFTFIDYGMQWVRQAPGKGLEWVAGIGSSGSSTNYGAAVKGRATISRDDGQSTVRLQLNNLRAEDTGTYYCAKSAGGYCVNGAGCNGGSIDAWGHGTEVIVSS
VL: ALTQPSSVSANLGGTVKITCSGGSGSYGWYQQKSPGSAPVTVIYSNNQRPSNIPSRFSGSPSGSTGTLTITGVQADDEAVYFCGSRDSSYVGVFGAGTTLTVL
modifications: scFv linker; amino acid sequence comprised in a heavy chain of an anti-CaENO1 scFv monoclonal antibody (CaS1); amino acid sequence comprised in a light chain of an anti-CaENO1 scFv monoclonal antibody (CaS1)
**Q.** With B1 as the molecule, how does the “Binding of C. albicans cells to OECM-1 cells” value (“Binding of C. albicans cells” below) (listed as CaS1) read?
**A.** inhibited its adherence

**Q.** And the “Binding of C. albicans cells” value (listed as CaS1 ScFv)?
**A.** inhibited

**Q.** And the “Binding of C. albicans cells” value (listed as scFv CaS1)?
**A.** significantly reduced
